Measured values reported in patent US12459987B2, “Monoclonal antibodies for prevention and treatment of herpes simplex viral infections” (priority 2019, dated 2025).
Numbering of substitutions follows the chain as printed.

B1: HSV010-4: gB-1 specific mouse monoclonal IgG; IgH SEQ ID NO: 32, IgL SEQ ID NO: 34 (antibody, V domains shown)
VH: QVQLKESGPGLVAPSQSLSITCTVSGFSLSRHDVSWVRQPPGKGLEWLGVIWGDGSTNYHSALISRLSISKDNSKSQVFLKLNSLQNDDTATYYCAKEDYGIFPYWGQGTLVTVSAA
VL: DIKMTQSPSSMYASLGEKVTITCKASQDISSYLSWFQQKPGKSPKTLIYRANRLVDGVPSRFSGSGSGQDYSLSISSLDYEDMGIYYCLQYDEFPLTFGAGTKLELKR
modifications: HSV010-4 heavy chain; HSV010-4 light chain
B2: HSV010-8: gB-1 specific mouse monoclonal IgG; IgH SEQ ID NO: 68, IgL SEQ ID NO: 70 (antibody, V domains shown)
VH: B1 VH with S30N, R31N, H32Y, N87T
VL: B1 VL with K18R, S30N, S74T, D79E, D82N
modifications: HSV010-8 heavy chain; HSV010-8 light chain
B3: HSV010-20: gB-1 specific mouse monoclonal IgG; IgH SEQ ID NO: 64, IgL SEQ ID NO: 66 (antibody, V domains shown)
VH: DVQLQESGPGMVRPSQSLSLTCTVTGYSITSGYDWHWIRHFPGNKLEWMGYISYSGLTNYNPSLRSRFSITHDTSKNHFFLKLNSVTTEDTATYYCARGPPWYFDVWGTGTTVTVSSA
VL: DIVMTQSQKFMSTSVGGRVSITCKASQIVRATVAWYQQKPGQSPKPLIYLASNRHTGVPDRFTGSGSGTDFTLTISNVQSEDLADYFCLQYWNYPYTFGGGTKLEIKR
modifications: HSV010-20 heavy chain; HSV010-20 light chain
B4: HSV010-16: gB-1 specific mouse monoclonal IgG; IgH SEQ ID NO: 76, IgL SEQ ID NO: 78 (antibody, V domains shown)
VH: QIQLVQSGPELKKPGETVKISCKASGYTFTTYGMSWVKQAPGKDLKWMGWINTYSGVSTYGDDFKGRFALSLETSASTAYLQINNLKNEDTATYFCAQLNYGMDYWGQGTSVTVSSA
VL: DIVMTQSHKFMSTSVGDRVSITCKASQDVSTSLAWYQQKPGQSPKLLIYSASYRYTGVPDRFTGSGSGTDFTFTISSVQAEDLAVYYCHQHYSIPRTFGGGTKLEIKR
modifications: HSV010-16 heavy chain; HSV010-16 light chain
B5: HSV010-15: gB-1 specific mouse monoclonal IgG; IgH SEQ ID NO: 72, IgL SEQ ID NO: 74 (antibody, V domains shown)
VH: QVQLQQPGAELVKPGASVKLSCKASGYTFTSYWIHWVQQRPGQGLEWIGMIHPNSGITNYSEKFKSKATLTLDKSSSTAYMQLISLTSEDSAVYYCARGSSSGSAWFAYWGQGTLVTVSAA
VL: DIQMTQSSSYLSVSLGGRVTITCKASDHINNWLPWYQQKPGNAPRLLISGATSLETGVPSRFSGSGSGKDYTLSITSLQTEDVATYYCQQYWSSPLTFGAGTKLELKR
modifications: HSV010-15 heavy chain; HSV010-15 light chain

system: HSV-2 G infected cell lysates; test: ELISA binding of recombinant antibodies to HSV-2 G infected cell lysates; parameters: species or system HSV-2 G strain; conditions: Table 3 summary
Procedure: Binding of recombinant antibodies to HSV-2 G lysates was tested by ELISA. Both heavy and light chain V(D)J rearrangements were amplified from selected single B-cell culture wells (22D10, 32H6, 33B8, and 35H7) by standard RT-PCR. These cloned V(D)J rearrangements were introduced into expression vectors. Recombinant antibodies were obtained by co-transfection of these expression vectors into Expi293F cells. ≥4 mg of purified IgGs was obtained (not shown). […]
Briefly, mice were vaccinated with ΔgD-2 and then 16 days after vaccination, the draining, inguinal lymph nodes were harvested. GC B cells were isolated from these tissues and were cultured in Nojima cultures. Although overall cloning efficiency of GC B cells from these (shipped) tissues was lower than those from freshly isolated tissues (6% vs. 20%), 50 GC clones were obtained that were specific to HSV-2 G strain (HSV-2 G or HSV2-G) lysate. GC B cells from inguinal lymph nodes of mice vaccinated with ΔgD-2 were sorted directly into 96-well plates (1 cell/well). These GC B cells were then cultured in the presence of NB-21.2D9 feeder cells. After culture, presence of IgG was first determined by ELISA, and then the reactivity of culture supernatant IgG against HSV-2 G lysates (HSV-2 G) and uninfected Vero lysates were tested by ELISA.
Based on the obtained V(D)J sequences from each B-cell culture, paired heavy and light chains were re-expressed (as recombinant mouse IgG1 and IgG2c antibodies) in Expi293F cells (Kuraoka et al. Immunity 2016; DiLillo et al. Nature Medicine 2013). […] As expected, all recombinant antibodies reacted specifically with HSV-2 G lysates (FIG. 3). […] Binding of recombinant antibodies to HSV-2 G lysates was tested by ELISA. Both heavy and light chain V(D)J rearrangements were amplified from selected single B-cell culture wells (22D10, 32H6, 33B8, and 35H7) by standard RT-PCR. These cloned V(D)J rearrangements were introduced into expression vectors. Recombinant antibodies were obtained by co-transfection of these expression vectors into Expi293F cells. ≥4 mg of purified IgGs was obtained (not shown). […] These recombinant antibodies (≥4 mg each) were tested for identification of reacting antigen(s), in an in vitro FcγRIV activation assay (Promega FcγRIV ADCC Reporter Bioassay)(FIG. 4), and in vivo protection assay. […]

| Molecule | Binding to HSV-lysate |
| --- | --- |
| B1 | Yes |
| B2 | Yes |
| B3 | Yes |
| B4 | Yes |
| B5 | Yes |

target: gB-1 (Human herpesvirus 1, UniProt P10211); test: Luminex competition: inhibition of binding of BMPC-23 human IgG to gB-1; parameters: species or system HSV-1; conditions: BMPC-23 human IgG 2 ng/ml
Procedure: FIGS. 10A-10G show the capacity of gB-1 specific mouse monoclonal IgG antibodies to inhibit binding of BMPC-23 human IgG antibodies to gB-1.
Finding BMPC-like antibodies. Nine out of 10 gB-1 specific mouse monoclonal IgG antibodies in FIG. 3 were tested for their capacity to inhibit binding of BMPC-23 human IgG antibodies to gB-1. Serially diluted, gB-1 specific mouse monoclonal antibodies or irrelevant, control mouse antibody (H33Lγ1) were incubated with gB-1 conjugated Luminex beads. After incubation, fixed concentration (2 ng/ml) of BMPC-23 human IgG antibodies were added to each well. After washing, mouse anti-human lgG-PE was added to detect binding of human BMPC-23 antibodies. […] Strong inhibition by HSV010-4 (>95% at 222 ng/ml), HSV010-7 (>90% at 222 ng/ml), and HSV010-34 (>80% at 222 ng/ml), shown in FIGS. 10B, 10F, and 10G, respectively, indicates these antibodies bind epitopes on gB-1 closely overlapping with the one recognized by BMPC-23. Therefore, similar protective efficacy as BMPC-23 is expected from these antibodies (experiments in progress). […] Protective efficacy of these antibodies need to be tested (experiments in progress).

| Molecule | Inhibition of binding of BMPC-23 human IgG antibodies to gB-1 (in words) |
| --- | --- |
| B3 | No inhibition |

same assay, conditions: Table 3 summary

| Molecule | Competition with BMPC-23 |
| --- | --- |
| B1 | Strong |
| B3 | No |

target: glycoprotein B of HSV-1 (gB-1) (Human herpesvirus 1, UniProt P10211); test: Luminex multiplex assay, binding to gB-1; conditions: Table 3 summary
Procedure: FIGS. 9A and 9B are graphs of median fluorescence intensity (MFI) versus IgG concentration (ng/ml), showing the binding of various recombinant antibodies to gB-1 as measured by Luminex multiplex assay.
BMPC-23 binds HSV-1 gB (gB-1). The gB-1 binding of the antibodies was determined by Luminex multiplex assay. Mixtures of antigen (gB-1)-conjugated microspheres (1,000 counts each) were added to each well of 96-well filter plates (Millipore). After washing with PBS containing 1% BSA, 0.05% Tween 20 and 0.05% NaN3, serially diluted recombinant antibodies (5E7, 19G7, 18G4, 22E10, 3A2, 17G3, 22D10, 32H6, 33B8, 25H7, BMPC-23, and S5V2-29) were added to the plates and incubated for 2 hours at room temperature, with mild agitation of the plates. Samples were diluted in PBS containing 1% cow milk, 1% BSA, 0.05% Tween 20 and 0.05% NaN3. After washing, PE goat anti-mouse IgG was added to the plates and incubated for 1 hour at room temperature with mild agitation. After washing, microspheres were resuspended in PBS containing 1% BSA, 0.05% Tween 20 and 0.05% NaN3 and fluorescent signals from each microsphere were measured in a Bio-Plex® 3D machine.
Finding gB-1 specific HSV antibodies. After Nojima culture (single B-cell culture), HSV-specific antibodies were cloned from germinal center B cells and tested for binding to HSV-1 gB-1 by Luminex multiplex assay as described above. FIGS. 9A and 9B show the gB-1 binding results for 10 antibodies in comparison with BMPC-23. With the exception of BMPC-23, the antibodies in Table 3 were derived from germinal center B cells (lymph nodes) taken 15-17 days after primary vaccination with ΔgD-2. BMPC-23 was derived from bone marrow plasmacytes taken 2 weeks post-boost with ΔgD-2. Nucleotide sequences and amino acid sequences for the heavy-chains and light chains are shown in Table 4, as are the amino acid sequences for the light chain and heavy chain CDR1, CDR2, and CDR3.

| Molecule | Target antigens |
| --- | --- |
| B1 | gB |
| B2 | gB |
| B3 | gB |
| B4 | gB |
| B5 | gB |
